Reference: patent publication US20150010575A1 (SAMSUNG ELECTRONICS, published 2015)

Target: T1, human c-Met/Fc fusion protein (R&D Systems) (human, UniProt P08581 25-932)
T1 construct: Bought from R&D Systems; Coated on microtiter plates at 2 ug/mL; also called human c-Met/Fc protein; not shown: Fc part of the bought fusion protein; not described
Experiment: ELISA, human c-Met/Fc coated at 2 ug/mL, hybridoma culture, anti-mouse IgG-HRP
Method: Human c-Met/Fc fusion protein was seeded in an amount of 50 μL (2 μg/mL)/well to microtiter plates and allowed to adhere to the surface of each well. The antibody that remained unbound was removed by washing.
The hybridoma cell culture obtained in Reference Example 1.1.2 was added in an amount of 50 μL to each well of the plates and incubated for 1 hour. The cells remaining unreacted were washed out with a sufficient amount of Tris-buffered saline and Tween 20 (TBST). Goat anti-mouse IgG-horseradish peroxidase (HRP) was added to the plates and incubated for 1 hour at room temperature. The plates were washed with a sufficient amount of TBST, followed by reacting the peroxidase with a substrate (OPD). Absorbance at 450 nm was measured on an ELISA reader.

T1 sequence (P08581 25-932 limits assumed): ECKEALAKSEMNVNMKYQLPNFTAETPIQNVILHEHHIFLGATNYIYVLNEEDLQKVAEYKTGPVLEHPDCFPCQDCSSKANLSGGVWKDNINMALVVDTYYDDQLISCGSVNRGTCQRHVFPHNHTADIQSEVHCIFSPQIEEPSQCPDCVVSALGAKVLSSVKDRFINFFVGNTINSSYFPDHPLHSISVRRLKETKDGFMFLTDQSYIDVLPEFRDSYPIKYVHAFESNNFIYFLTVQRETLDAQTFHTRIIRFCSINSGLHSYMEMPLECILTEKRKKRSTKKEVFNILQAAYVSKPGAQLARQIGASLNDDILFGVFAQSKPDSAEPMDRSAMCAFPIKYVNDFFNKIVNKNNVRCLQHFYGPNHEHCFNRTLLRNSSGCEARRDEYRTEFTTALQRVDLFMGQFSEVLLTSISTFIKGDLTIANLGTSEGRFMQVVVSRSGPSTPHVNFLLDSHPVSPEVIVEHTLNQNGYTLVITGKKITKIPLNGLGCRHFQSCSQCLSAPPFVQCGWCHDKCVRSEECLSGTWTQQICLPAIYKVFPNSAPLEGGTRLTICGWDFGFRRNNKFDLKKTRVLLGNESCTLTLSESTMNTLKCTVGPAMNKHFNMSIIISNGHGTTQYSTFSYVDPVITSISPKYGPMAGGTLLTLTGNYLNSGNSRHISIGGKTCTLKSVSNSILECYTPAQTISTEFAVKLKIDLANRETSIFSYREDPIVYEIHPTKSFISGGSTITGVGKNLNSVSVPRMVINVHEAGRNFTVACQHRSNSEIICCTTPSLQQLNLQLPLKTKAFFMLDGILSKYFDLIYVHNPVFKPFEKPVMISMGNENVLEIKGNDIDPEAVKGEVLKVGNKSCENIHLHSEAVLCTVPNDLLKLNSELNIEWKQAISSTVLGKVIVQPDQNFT

B1: AbF46, a mouse antibody to c-Met (antibody, V domains shown)
VH: EVKLVESGGGLVQPGGSLRLSCATSGFTFTDYYMSWVRQPPGKALEWLGFIRNKANGYTTEYSASVKGRFTISRDNSQSILYLQMDTLRAEDSATYYCARDNWFAYWGQGTLVTVSA
VL: DILMTQSPSSLTVSAGEKVTMSCKSSQSLLASGNQNNYLAWHQQKPGRSPKMLIIWASTRVSGVPDRFIGSGSGTDFTLTINSVQAEDLAVYYCQQSYSAPLTFGAGTKLELK
notes: Mouse monoclonal antibody, tested as hybridoma culture supernatant in the selection ELISA; also called monoclonal antibody of hybridoma KCLRF-BP-00220
- binding result: binds
